The results in this text go back to US20230416410A1 (ZOETIS SERVICES, published 2023).

The term Kd denotes the equilibrium constant for the complex coming apart. Lower therefore signals tighter binding.

Common to all, as to assay: SPR Biacore, biotinylated receptor on SA sensor, pH 7.4, 15 C
A general note: Surface plasmon resonance follows binding to a sensor surface in real time, without labels.

One assay deals with T1, CTLA4 Fc bIgG1aWinSS (canine; bovine, UniProt Q9XSI1 36-161, limits assumed).
T1 construct: No linker
T1 sequence: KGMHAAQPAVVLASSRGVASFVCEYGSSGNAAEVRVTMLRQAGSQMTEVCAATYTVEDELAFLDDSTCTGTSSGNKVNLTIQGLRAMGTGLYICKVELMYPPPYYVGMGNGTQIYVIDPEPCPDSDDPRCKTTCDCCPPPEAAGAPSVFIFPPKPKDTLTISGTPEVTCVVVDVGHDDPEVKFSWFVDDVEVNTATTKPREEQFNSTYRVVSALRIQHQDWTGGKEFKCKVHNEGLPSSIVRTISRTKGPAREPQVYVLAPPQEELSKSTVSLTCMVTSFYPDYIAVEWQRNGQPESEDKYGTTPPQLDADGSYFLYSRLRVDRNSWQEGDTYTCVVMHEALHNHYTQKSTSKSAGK
The method, then: (§1) A Biacore SPR binding assay was designed to test the affinity of bovine IgG subclasses to bFcgR1, bFcgR2 and bFcgR3. All reported KD's were measured by Biacore (Cytiva, Marlborough, MA, USA) using series S SA sensor. Biotinylated-bovine FcgR1, R2 and R3 were captured on the sensor surface using a modified SA capture method to reach the desired surface density. 10 mM HEPES, 150 mM NaCl, 3 mM EDTA, 0.05% v/v surfactant P20, pH7.4 buffer was used as the running and titration buffer. Various concentrations of bovine CTLA4-Fc fusions or mAbs were titrated and flowed over the receptor surface and affinities were determined using Biacore T200 Evaluation software (Cytiva, Marlborough, MA, USA) with 1:1 binding model. The method of double referencing has been applied where the reference flow cell was subtracted from the flow cell containing immobilized receptors and blank runs containing buffer only were subtracted out from all runs. Flow cells were regenerated using 10 mM Glycine pH1.5. Runs were performed at 15° C.
The ability to knock out binding to bovine Fc gamma receptors was evaluated by comparing SPR Biacore bFcgR affinity of bIgG1a and bIgG1b wildtype Fc to the bIgG1a and bIgG1b mutations, described above. All mutations made to bIgG1 are identical for the a and b allotypes. Biacore methods for bFcgR1, R2, and R3 were performed as described in Example 1.

The target of another assay is T2, CTLA4 Fc bIgG3aWin (canine; bovine, UniProt Q9XSI1 36-161, limits assumed).
T2 construct: No linker
T2 sequence: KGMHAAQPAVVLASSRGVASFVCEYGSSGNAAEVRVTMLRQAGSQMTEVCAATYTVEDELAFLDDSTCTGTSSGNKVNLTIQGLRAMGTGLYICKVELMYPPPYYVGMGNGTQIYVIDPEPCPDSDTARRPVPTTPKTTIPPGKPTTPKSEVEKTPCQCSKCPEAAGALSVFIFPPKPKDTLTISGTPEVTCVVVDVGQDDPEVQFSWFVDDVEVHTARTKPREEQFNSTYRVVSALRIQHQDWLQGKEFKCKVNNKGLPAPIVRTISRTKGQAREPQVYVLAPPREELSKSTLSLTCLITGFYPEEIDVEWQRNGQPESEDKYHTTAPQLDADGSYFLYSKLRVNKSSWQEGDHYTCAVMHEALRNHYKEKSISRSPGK
The method, then:
as §1
(§2) Biacore methods for bFcgR1, R2, and R3 were performed as described in Examples above. […] Although the two allotypes have different KDs for bFcgR2 and bFcgR3, both wildtype allotypes do bind. All of the mutations, bIgG3Win, bIgG3WinSAS, bIgG3SAS and bIgG3SAP for both the a and b allotypes knocked down binding to bFcgR1, bFcgR2 and bFcgR3 to negligible affinities. Thus, for knocking out receptor binding, the two allotypes compare similarly.

Another assay has as its target T3, CTLA4 Fc bIgG3a (canine; bovine, UniProt Q9XSI1 36-161, limits assumed).
T3 construct: No linker; also called bIgG3a wildtype; CTLA4 Fc bIgG3a wildtype
T3 sequence: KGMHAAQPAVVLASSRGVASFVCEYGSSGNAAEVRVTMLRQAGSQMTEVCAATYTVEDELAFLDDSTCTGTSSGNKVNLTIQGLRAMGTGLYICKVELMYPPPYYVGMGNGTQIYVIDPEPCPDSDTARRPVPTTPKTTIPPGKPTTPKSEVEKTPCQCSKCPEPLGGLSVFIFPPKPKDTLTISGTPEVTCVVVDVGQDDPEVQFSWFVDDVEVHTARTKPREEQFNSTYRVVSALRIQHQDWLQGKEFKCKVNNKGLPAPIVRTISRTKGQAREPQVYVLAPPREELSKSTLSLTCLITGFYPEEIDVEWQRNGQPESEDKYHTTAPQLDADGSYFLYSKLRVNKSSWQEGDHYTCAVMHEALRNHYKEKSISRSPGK
The method, then:
as §1, §2

For the next assay, the target named is T4, CTLA4 Fc bIgG3aWinSAS (canine; bovine, UniProt Q9XSI1 36-161, limits assumed).
T4 construct: No linker
T4 sequence: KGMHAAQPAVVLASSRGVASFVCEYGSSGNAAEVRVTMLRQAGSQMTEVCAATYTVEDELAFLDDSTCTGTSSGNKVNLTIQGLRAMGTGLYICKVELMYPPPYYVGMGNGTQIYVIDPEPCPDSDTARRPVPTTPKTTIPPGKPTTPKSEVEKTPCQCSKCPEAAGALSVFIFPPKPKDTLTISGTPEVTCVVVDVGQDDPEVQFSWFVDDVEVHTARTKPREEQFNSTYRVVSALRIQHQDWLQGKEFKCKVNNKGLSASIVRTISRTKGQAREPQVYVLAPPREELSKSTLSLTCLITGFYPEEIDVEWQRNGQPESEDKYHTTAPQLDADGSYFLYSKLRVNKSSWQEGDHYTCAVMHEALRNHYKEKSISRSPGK
The method, then:
as §1, §2

The next assay addresses T5, CTLA4 Fc bIgG3aSAS (canine; bovine, UniProt Q9XSI1 36-161, limits assumed).
T5 construct: No linker
T5 sequence: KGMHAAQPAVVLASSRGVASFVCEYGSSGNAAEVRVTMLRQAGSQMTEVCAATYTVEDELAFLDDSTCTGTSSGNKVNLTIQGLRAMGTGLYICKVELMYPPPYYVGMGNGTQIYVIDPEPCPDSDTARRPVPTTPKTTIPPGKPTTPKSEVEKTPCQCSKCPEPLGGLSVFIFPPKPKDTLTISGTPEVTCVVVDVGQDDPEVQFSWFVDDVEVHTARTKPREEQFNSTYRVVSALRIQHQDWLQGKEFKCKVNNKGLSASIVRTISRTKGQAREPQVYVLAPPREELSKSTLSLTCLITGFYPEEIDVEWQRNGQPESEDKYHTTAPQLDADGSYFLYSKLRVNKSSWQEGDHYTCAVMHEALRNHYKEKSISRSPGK
The method, then:
as §1, §2

B1: recombinant bovine FcgR2 (receptor)
chain: KPDLPKAVVTIQPAWINVLREDHVTLTCQGTSFSAGNLTTWFHNGSSIHTQKQPSYSFRAGSNDSGSYRCQREQTSLSDPVHLDVISDWLLLQTPSLVFQEGEPIMLRCHSWRNQPLNKITFYQDRKSKIFSYQRTNFSIPRANLSHSGQYHCTAFIGKMLHSSQPVNITVQESSSSGPSSMTHHHHHHAGLNDIFEAQKIEWHE
modifications: biotin on the BAP tag (BirA)
notes: also called bFcgR2; bFcgRII
B1: the results for the Kd in the assay with CTLA4 Fc bIgG1aWinSS and with CTLA4 Fc bIgG3a were 52.5 nM and 68.9 nM, respectively. The binding result in the assay with CTLA4 Fc bIgG3aWin, with CTLA4 Fc bIgG3aWinSAS and with CTLA4 Fc bIgG3aSAS was “no binding” in each case.

B2: recombinant bovine FcgR3 (receptor)
chain: DTQTADPSKAVVLLDPQWNHVLTNDRVTLKCQGDYPVEDNSTKWWHNGTLISSQTPSYFIADVKVQDSGEYKCQTGLSAPSDPVKLEVHVGWLLLQVAQRVVNVGKPIRLKCHSWKKTPVAKVQYFRNGRGKKYSHGNSDFHIPEAKLEHSGSYFCRGIIGSKNESSESVQITVQAPETLQTVSSFFLPWHQHHHHHHAGLNDIFEAQKIEWHE
modifications: biotin on the BAP tag (BirA)
notes: also called bFcgR3; bFcgRIII
As for B2, in the assay with CTLA4 Fc bIgG3aWin, the binding result was “no binding”. In the assay with CTLA4 Fc bIgG3a, binding was put at a Kd of 7170 nM.
